B1: Brassica napus (canola) EPSP synthase DGT-3 (GENBANK P17688) variant DGT-3 v6 (G→A) (Brassica napus; G173A) (protein)
chain: KASEIVLQPIREISGLIKLPGSKSLSNRILLLAALSEGTTVVDNLLNSDDINYMLDALKKLGLNVERDSVNNRAVVEGCGGIFPASLDSKSDIELYLGNAATAMRPLTAAVTAAGGNASYVLDGVPRMRERPIGDLVVGLKQLGADVECTLGTNCPPVRVNANGGLPGGKVKLSGSISSQYLTALLMAAPLALGDVEIEIIDKLISVPYVEMTLKLMERFGVSAEHSDSWDRFFVKGGQKYKSPGNAYVEGDASSASYFLAGAAITGETVTVEGCGTTSLQGDVKFAEVLEKMGCKVSWTENSVTVTGPSRDAFGMRHLRAVDVNMNKMPDVAMTLAVVALFADGPTTIRDVASWRVKETERMIAICTELRKLGATVEEGSDYCVITPPAKVKPAEIDTYDDHRMAMAFSLAACADVPVTIKDPGCTRKTFPDYFQVLESITKH
notes: made in house; host or cells: E. coli Rosetta2 (DE3)
B2: Brassica napus (canola) EPSP synthase DGT-3 (GENBANK P17688) variant DGT-3 v7 (G→A, P→S; GAPS) (Brassica napus; G173A/P178S) (protein)
chain: KASEIVLQPIREISGLIKLPGSKSLSNRILLLAALSEGTTVVDNLLNSDDINYMLDALKKLGLNVERDSVNNRAVVEGCGGIFPASLDSKSDIELYLGNAATAMRSLTAAVTAAGGNASYVLDGVPRMRERPIGDLVVGLKQLGADVECTLGTNCPPVRVNANGGLPGGKVKLSGSISSQYLTALLMAAPLALGDVEIEIIDKLISVPYVEMTLKLMERFGVSAEHSDSWDRFFVKGGQKYKSPGNAYVEGDASSASYFLAGAAITGETVTVEGCGTTSLQGDVKFAEVLEKMGCKVSWTENSVTVTGPSRDAFGMRHLRAVDVNMNKMPDVAMTLAVVALFADGPTTIRDVASWRVKETERMIAICTELRKLGATVEEGSDYCVITPPAKVKPAEIDTYDDHRMAMAFSLAACADVPVTIKDPGCTRKTFPDYFQVLESITKH
notes: as for B1
B3: Brassica napus (canola) EPSP synthase DGT-3 (GENBANK P17688) variant DGT-3 v8 (T→I, P→S; TIPS) (Brassica napus; P178S/T174I) (protein)
chain: KASEIVLQPIREISGLIKLPGSKSLSNRILLLAALSEGTTVVDNLLNSDDINYMLDALKKLGLNVERDSVNNRAVVEGCGGIFPASLDSKSDIELYLGNAGIAMRSLTAAVTAAGGNASYVLDGVPRMRERPIGDLVVGLKQLGADVECTLGTNCPPVRVNANGGLPGGKVKLSGSISSQYLTALLMAAPLALGDVEIEIIDKLISVPYVEMTLKLMERFGVSAEHSDSWDRFFVKGGQKYKSPGNAYVEGDASSASYFLAGAAITGETVTVEGCGTTSLQGDVKFAEVLEKMGCKVSWTENSVTVTGPSRDAFGMRHLRAVDVNMNKMPDVAMTLAVVALFADGPTTIRDVASWRVKETERMIAICTELRKLGATVEEGSDYCVITPPAKVKPAEIDTYDDHRMAMAFSLAACADVPVTIKDPGCTRKTFPDYFQVLESITKH
notes: as for B1
B4: Glycine max (soybean) EPSP synthase DGT-1 variant DGT-1 v6 (G→A) (Glycine max; G182A) (protein)
chain: MASVAAAEKPSTSPEIVLEPIKDFSGTITLPGSKSLSNRILLLAALSEGTTVVDNLLYSEDIHYMLGALRTLGLRVEDDKTTKQAIVEGCGGLFPTSKESKDEINLFLGNAATAMRPLTAAVVAAGGNASYVLDGVPRMRERPIGDLVAGLKQLGADVDCFLGTNCPPVRVNGKGGLPGGKVKLSGSVSSQYLTALLMAAPLALGDVEIEIVDKLISVPYVEMTLKLMERFGVSVEHSGNWDRFLVHGGQKYKSPGNAFVEGDASSASYLLAGAAITGGTITVNGCGTSSLQGDVKFAEVLEKMGAKVTWSENSVTVSGPPRDFSGRKVLRGIDVNMNKMPDVAMTLAVVALFANGPTAIRDVASWRVKETERMIAICTELRKLGATVEEGPDYCVITPPEKLNVTAIDTYDDHRMAMAFSLAACGDVPVTIKDPGCTRKTFPDYFEVLERLTKH
B5: Glycine max (soybean) EPSP synthase DGT-1 variant DGT-1 v8 (T→I, P→S; TIPS) (Glycine max; P187S/T183I) (protein)
chain: MASVAAAEKPSTSPEIVLEPIKDFSGTITLPGSKSLSNRILLLAALSEGTTVVDNLLYSEDIHYMLGALRTLGLRVEDDKTTKQAIVEGCGGLFPTSKESKDEINLFLGNAGIAMRSLTAAVVAAGGNASYVLDGVPRMRERPIGDLVAGLKQLGADVDCFLGTNCPPVRVNGKGGLPGGKVKLSGSVSSQYLTALLMAAPLALGDVEIEIVDKLISVPYVEMTLKLMERFGVSVEHSGNWDRFLVHGGQKYKSPGNAFVEGDASSASYLLAGAAITGGTITVNGCGTSSLQGDVKFAEVLEKMGAKVTWSENSVTVSGPPRDFSGRKVLRGIDVNMNKMPDVAMTLAVVALFANGPTAIRDVASWRVKETERMIAICTELRKLGATVEEGPDYCVITPPEKLNVTAIDTYDDHRMAMAFSLAACGDVPVTIKDPGCTRKTFPDYFEVLERLTKH
B6: Glycine max (soybean) EPSP synthase DGT-1 variant DGT-1 v7 (G→A, P→S; GAPS) (Glycine max; G182A/P187S) (protein)
chain: MASVAAAEKPSTSPEIVLEPIKDFSGTITLPGSKSLSNRILLLAALSEGTTVVDNLLYSEDIHYMLGALRTLGLRVEDDKTTKQAIVEGCGGLFPTSKESKDEINLFLGNAATAMRSLTAAVVAAGGNASYVLDGVPRMRERPIGDLVAGLKQLGADVDCFLGTNCPPVRVNGKGGLPGGKVKLSGSVSSQYLTALLMAAPLALGDVEIEIVDKLISVPYVEMTLKLMERFGVSVEHSGNWDRFLVHGGQKYKSPGNAFVEGDASSASYLLAGAAITGGTITVNGCGTSSLQGDVKFAEVLEKMGAKVTWSENSVTVSGPPRDFSGRKVLRGIDVNMNKMPDVAMTLAVVALFANGPTAIRDVASWRVKETERMIAICTELRKLGATVEEGPDYCVITPPEKLNVTAIDTYDDHRMAMAFSLAACGDVPVTIKDPGCTRKTFPDYFEVLERLTKH

The record followed here is patent US9873883B2, “Glyphosate resistant plants and associated methods” (Dow AgroSciences LLC, priority 2012, dated 2018).

Substrate in the first series: C=C(OP(=O)(O)O)C(=O)O
The series is described as follows: In vitro kinetic assay (inorganic phosphate production, malachite green). The series is classed as biochemical, Brassica napus. To be noted: other: pH 7.5, 1 mM S3P. The source says: (§1) The following Class I enzymes: DGT-1 from Glycine max, DGT-3 from Brassica napus (GENBANK ACC NO: P17688), and DGT-7 from Triticum aestivum (GENBANK ACC NO: EU977181) were used as a comparison. The Class I EPSP synthase enzymes and mutant variants thereof were synthesized and evaluated. A mutation introduced into the plant EPSP synthase enzymes consisted of the Glycine to Alanine mutation made within the EPSP synthase enzyme at a similar location as that of the G96A mutation from the E. coli version of the enzyme. In addition, Threonine to Isoleucine and Proline to Serine mutations were introduced within these Class I EPSP synthase enzymes at analogous positions as that of amino acid 97 (T to I) and amino acid 101 (P to S) in the EPSP synthase of E. coli as described in Funke et al., (2009).
(§2) The location of the amino acid residue which was mutated from glycine to alanine is indicated by the first asterisk. The location of the amino acid residue which was mutated from threonine to isoleucine is indicated by the second asterisk. The location of the third amino acid residue which was mutated from proline to serine is indicated by the third asterisk. These mutations were introduced into different versions of DGT-1, DGT-3, and DGT-7. The different versions of the genes which contain the mutations are described in more detail below.
(§3) Additional constructs containing the dgt-1, dgt-3 and dgt-7 were synthesized. These constructs were used for in vitro testing of the dgt-1 v5, dgt-1 v6, dgt-1 v7, dgt-1 v8, dgt-3 v6, dgt-3 v7, dgt-3 v8, dgt-7 v5, dgt-7 v6, dgt-7 v7, and dgt-7 v8 gene sequences were outsourced to GeneArt for synthesis and cloning. The synthesized genes were cloned into the pET28 expression vector. The resulting constructions were labeled as pDAB102028 containing dgt-1 v5, pDAB102029 containing dgt-1 v6, pDAB102032 containing dgt-1 v7, pDAB102034 containing dgt-1 v8, pDAB100429 containing dgt-3 v6, pDAB100442 containing dgt-3 v7, pDAB100430 containing dgt-3 v8, pDAB102036 containing dgt-7 v5, pDAB102038 containing dgt-7 v6, pDAB102040 containing dgt-7 v7, and pDAB102042 containing dgt-7 v8.
(§4) Recombinant DGT proteins were overexpressed in Rosetta2™ (DE3) cells (Novagen, Madison, Wis.) from the constructs described above. A single colony was used to inoculate 50 mL starter cultures of LB containing chloramphenicol (25 μg/mL) and kanamycin (50 μg/mL) which were cultivated overnight at 37° C. The overnight cultures were used to inoculate 1 L of LB containing chloramphenicol (25 μg/mL) and kanamycin (50 μg/mL). The cultures were grown at 37° C. to an O.D.600=0.6 then placed in an ice water bath for 10 minutes. Expression of the target proteins was achieved by addition of IPTG to a final concentration of 500 μM. Induction was allowed to proceed overnight at 20° C. followed by harvesting via centrifugation at 8,000 rpm for 20 minutes. The cell pellets were stored at −80° C. until required for purification. All purification steps were carried out at 4° C.
(§5) Cell pellets from 1 L cultures were resuspended in 20-30 mL Buffer A (50 mM HEPES pH 7.5, 150 mM KCl, 2 mM DTT, 1 mM EDTA, 20 mM imidazole, and 5% glycerol). COMPLETE™ protease inhibitor cocktail (1 tablet/50 mL, Roche, Indianapolis, Ind.) and lysozyme (1 mg/mL, Sigma-Aldrich, St. Louis, Mo.) were then added and the suspension was stirred for 20 minutes. Cell lysis was performed using a Branson Sonifier 250 (3×60 second bursts) followed by removal of the cell debris by centrifugation at 16,000 rpm for 45 minutes. […]
As a reminder, the Km is the concentration of substrate that gives half-maximal velocity. For orientation: kcat/Km means the turnover number divided by the Michaelis constant. Consider B1, for which the Km was 1073.4 µM and the kcat/Km came out at 13900 M⁻¹ s⁻¹.

Regarding B2, the Km was found to be 2728.3 µM and the kcat/Km was found to be 2280 M⁻¹ s⁻¹.

Consider B3, for which the Km was 196.8 µM.

Substrate in a further series: C=C(OP(=O)(O)O)C(=O)O
Described as above. The series is classed as biochemical, Glycine max. To be noted: other: pH 7.5, 1 mM S3P. This is another data set of the same source.
Source text: as §1, §2, §3, §4, §5
Regarding B4, the Km came to 608.2 µM and the kcat/Km was determined as 13400 M⁻¹ s⁻¹.

For the molecule B5, the Km came out at 151.4 µM.

As to B6, the Km worked out at 1291.2 µM and the kcat/Km came to 6670 M⁻¹ s⁻¹.

Another series deals with C=C(OP(=O)(O)O)C(=O)O. As to the kind of experiment: purified protein, by the assay type. The conditions noted are these: other: pH 7.5, 1 mM S3P.
“Mariprofundus ferrooxydans EPSP synthase DGT-14 v1, native wild type (GENBANK ZP_01452683; SEQ ID NO:17) (Mariprofundus ferrooxydans PV-1)”: the Km was 208.6 µM.

In the case of “bacterial EPSP synthase DGT-18 (GENBANK NP_928909.1) variant DGT-18 v6 (G→A at residue 96), SEQ ID NO:9 (Photorhabdus laumondii subsp. laumondii TTO1; G96A)”, the Km was determined as 375.9 µM and the kcat/Km is 40000 M⁻¹ s⁻¹.

With “bacterial EPSP synthase DGT-11 v6, native (GENBANK YP_989551.1), SEQ ID NO:5 (Bartonella bacilliformis INS)”, the Michaelis-Menten constant (Km) is 1576.6 µM and the kcat/Km turned out to be 50 M⁻¹ s⁻¹.

Turning to “bacterial EPSP synthase DGT-29 (GENBANK YP_322772.1) variant DGT-29 v6 (G→A at residue 96), SEQ ID NO:11 (Trichormus variabilis ATCC 29413; G96A)”, the Km turned out to be 1502.2 µM and the kcat/Km was 4000 M⁻¹ s⁻¹.

Take “bacterial EPSP synthase DGT-30 (GENBANK ZP_02156189.1) variant DGT-30 v6 (G→A at residue 96), SEQ ID NO:13 (Shewanella benthica KT99; G96A)”: the Km turned out to be 414.9 µM and the kcat/Km came out at 30000 M⁻¹ s⁻¹.
